The target of this assay is T1, hCLL-1 on U937 human AML cells (human, UniProt Q5QGZ9 1-265).
T1 sequence (looked up): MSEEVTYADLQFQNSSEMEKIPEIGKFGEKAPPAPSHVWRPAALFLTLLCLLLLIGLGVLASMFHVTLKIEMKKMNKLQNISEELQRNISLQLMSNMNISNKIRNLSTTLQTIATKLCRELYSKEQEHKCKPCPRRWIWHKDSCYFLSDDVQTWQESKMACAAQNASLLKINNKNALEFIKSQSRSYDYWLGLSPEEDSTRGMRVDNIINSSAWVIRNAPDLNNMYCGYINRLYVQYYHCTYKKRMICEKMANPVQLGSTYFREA
Nature of the assay: cell-based or functional assay.

B1: DAR2-ARC-ADC (DAR2-ARC-IgG conjugated with 2'-Cl-araNAD+-MMAF) (antibody)
heavy: not shown
light: ENVLTQSPAIMSASPGEKVTMTCRASSNVISSYVHWYQQRSGASPKLWIYSTSNLASGVPARFSGSGSGTSYSLTISSVEAEDAATYYCQQYSGYPLTFGAGTKLELKRAAAAPSVFIFPPSDEQLKSGTASVVCLLNNFYPREAKVQWKVDNALQSGNSQESVTEQDSKDSTYSLSSTLTLSKADYEKHKVYACEVTHQGLSSPVTKSFNRGEC
modifications: 2'-Cl-arabinose-ADP-MMAF on Glu226 of the CD38 domain (CD38 numbering)
As for B1, the “in vitro cytotoxicity EC50 on U937 (CLL-1+) cells (MTT, 72 hours)” value came out at 0.9 nM.

For the origin of these results see patent US20230128344A1 (UNIVERSITY OF SOUTHERN CALIFORNIA, published 2023).
